According to article PMC3787135:

Substrate: Nc1ncnc2c1ncn2[C@@H]1O[C@H](COP(=O)(O)OP(=O)(O)OP(=O)(O)O)[C@@H](O)[C@H]1O
Assay: purified protein
Conditions: microtubules; standard assay conditions; apparent Km from gliding velocity

B1: kinesin-II (wild type heterotrimer KLP-11/KLP-20/KAP-1) (Caenorhabditis elegans) (protein)
chain 1: MVEIMKKSSKQETVKVIVRCRPLSSQEIANNYSKIVHMRPQRGQIELKNPKEQDEPSKDFTFDAIYDENSTQSDLYEETFRDLVDSVLNGYNATIFAYGQTGTGKTHTMEGKSSDPEQRGVIYKCIDHIFEHMAASHNQEYLVRASYLEIYQEELRDLLEAESNKKLEIKERPDGGVYVKDLTSKLTRTVGEIHEVMIRGNGHRSVGRTNMNEHSSRSHAIFIITVECSRIGEDGESHITVGRLNLVDLAGSERQSKTGATGERFKEATKINLSLSALGNVISALVDAKSAHIPYRDSKLTRLLQDSLGGNSKTVMVACIGPASYNFEETLGTLRYANRAKNIKNQPKINEDPKDALLREFQEEIEMLREQLKQRKTRSRDGATQSFYDAERAKLEDDIEAIQKDDSLIKHEKDRLIREIQEKHDLLEKERIEQARVAERIANIQSRLIVGSEEDGRLESRTKEQHAQLEKKRRELAEQKRREREMVEALERQEEDTVDLKQTFSDLRTEVEAKTKKLKKMLIKLRQARNEIRDVSGAYSDERQDLDQTIAEVSKELKLKLLIVENFIPRDVSERIKERAEWNEDSFEWNVNAFQSTSSNSSTPLNNTIEVNEDGVFTRSSGADSGVSVSGGNGTPATSQFLDKRLVATPGCRRPMSMCERMLVETAREQFGAQRRPPISGSGSFVEATIPEETIRFCGENVVVFSALERFVPEVTDSDPSTFSNSMMMSARRPSIENLTIDASKVLVPILNQSTMILKNSKNGQARNDTMPPNGSMRRSQN
chain 2: MEGAEKVKVVVRCRPISTTEKLQGHKIAVTCNDEEKAVNIKSLSQEDPPRTFYFDAVFSPNTDQMTVYNVAARPIVENVLKGYNGTIFAYGQTGTGKTFTMAGDLEPVEMRGIIPNSFAHIFDHIAKCQHDTTFLVRVSYLEIYNEEIRDLLSKDHNGNLEIKERPDVGVYVRNLSNPTVENASKMQALMEFGSKNRKVGATAMNLESSRSHAMFTVTIESCRNGLVTQGKLQLVDLAGSERQSKTGAQGERLKEAAKINLSLSTLGNVISSLVDGKSTHIPYRNSKLTRLLQDSLGGNSKTVMIANVGPATYNYDETLSTLRYANRAKNIQNVAKINEDPKDAQLRKFQLEIEALRKILDEENPGDDENQEEAWEAKMQEREVEMEKKRKILEERVNSAVNDEETHRLVKEMMENEAELKKARSEHEKLRSKLEKIEKKLIVGGENLLEKVEEQAKLLEVNNKELEQSKFQEAHLRTQLEERTAVKVEIEERYSSLQEEAFVKSKKIKKVSNELKDARAELKDLEEDHQRQVEAMLDDIRQLRKELLLNIAIIDEYIPVEHVELIEKYVSWSEEHGDWQLKAIAYTGNNMRASAPPAKKEFSNNNQTVPMYYSYRADLGASTAEHRPRTSSKKHRASIRLQQLLT
- Vmax: 15.6 µM/min
